Experimental data from IntAct's records for PubMed 35869491.

B1: Spastin (Homo sapiens), Q9UBP0-1 (parent)
chain: MNSPGGRGKKKGSGGASNPVPPRPPPPCLAPAPPAAGPAPPPESPHKRNLYYFSYPLFVGFALLRLVAFHLGLLFVWLCQRFSRALMAAKRSSGAAPAPASASAPAPVPGGEAERVRVFHKQAFEYISIALRIDEDEKAGQKEQAVEWYKKGIEELEKGIAVIVTGQGEQCERARRLQAKMMTNLVMAKDRLQLLEKMQPVLPFSKSQTDVYNDSTNLACRNGHLQSESGAVPKRKDPLTHTSNSLPRSKTVMKTGSAGLSGHHRAPSYSGLSMVSGVKQGSGPAPTTHKGTPKTNRTNKPSTPTTATRKKKDLKNFRNVDSNLANLIMNEIVDNGTAVKFDDIAGQDLAKQALQEIVILPSLRPELFTGLRAPARGLLLFGPPGNGKTMLAKAVAAESNATFFNISAASLTSKYVGEGEKLVRALFAVARELQPSIIFIDEVDSLLCERREGEHDASRRLKTEFLIEFDGVQSAGDDRVLVMGATNRPQELDEAVLRRFIKRVYVSLPNEETRLLLLKNLLCKQGSPLTQKELAQLARMTDGYSGSDLTALAKDAALGPIRELKPEQVKNMSASEMRNIRLSDFTESLKKIKRSVSPQTLEAYIRWNKDFGDTTV

Variants of: B1
Conditions: with fxl17_human FBXL17, Q9UF56
Chain of fxl17_human FBXL17, Q9UF56 (Q9UF56 whole entry): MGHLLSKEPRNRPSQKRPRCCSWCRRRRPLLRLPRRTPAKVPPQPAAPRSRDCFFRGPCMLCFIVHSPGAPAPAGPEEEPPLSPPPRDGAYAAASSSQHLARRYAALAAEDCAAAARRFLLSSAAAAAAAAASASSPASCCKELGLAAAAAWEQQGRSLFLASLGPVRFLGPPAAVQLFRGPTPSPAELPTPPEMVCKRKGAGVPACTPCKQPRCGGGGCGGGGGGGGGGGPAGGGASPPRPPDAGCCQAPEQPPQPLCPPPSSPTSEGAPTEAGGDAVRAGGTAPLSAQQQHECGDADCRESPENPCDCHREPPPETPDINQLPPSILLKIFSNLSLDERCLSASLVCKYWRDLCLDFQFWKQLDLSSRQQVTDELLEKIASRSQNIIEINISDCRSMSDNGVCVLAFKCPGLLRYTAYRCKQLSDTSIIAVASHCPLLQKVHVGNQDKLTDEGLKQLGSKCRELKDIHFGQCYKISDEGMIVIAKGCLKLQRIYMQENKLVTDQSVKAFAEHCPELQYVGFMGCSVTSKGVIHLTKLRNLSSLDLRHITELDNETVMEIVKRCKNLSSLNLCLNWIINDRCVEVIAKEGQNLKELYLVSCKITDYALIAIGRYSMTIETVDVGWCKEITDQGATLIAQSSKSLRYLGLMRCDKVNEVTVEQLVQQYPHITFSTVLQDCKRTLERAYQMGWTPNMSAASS

Variant | effect of a mutation on the interaction
Y52C | disrupting interaction strength
